Laboratory results taken from article PMC10787587.
One block for each substance: values may come before it.

How the values were obtained:
Experiment in all cases: SEC
[1] = target: human CYP11B2 (aldosterone generating enzyme), N-terminally truncated and modified, C-terminally His-tagged (human) (UniProt P19099)
[2] = target: human CYP11B1 (11β-hydroxylase), N-terminally truncated and modified, C-terminally His-tagged (human) (UniProt P15538)
[3] = target: human CYP11A1 (side-chain cleavage enzyme), N-terminally truncated and modified, C-terminally His-tagged (human) (UniProt P05108)

stoichiometry N [1]: 4
Substance: human CYP11B2 (aldosterone generating enzyme), N-terminally truncated and modified, C-terminally His-tagged (from UniProt P19099 25-503)

stoichiometry N [2]: 4
Substance: human CYP11B1 (11β-hydroxylase), N-terminally truncated and modified, C-terminally His-tagged (from UniProt P15538 25-503) (enzyme)

stoichiometry N [3]: 4
Substance: human CYP11A1 (side-chain cleavage enzyme), N-terminally truncated and modified, C-terminally His-tagged (from UniProt P05108 40-521)
